Data reported in PMC8557155 (Annals of Nuclear Medicine, 2021).
Entries after “also recorded” stand apart in the source; their conditions may differ.

Assay: Safety and tolerability (TEAEs, NCI CTCAE v4.0, DLT)
Type: in vivo, human (Japanese patients)
Experimental: Safety was evaluated based on adverse events, laboratory tests, vital signs, physical examination, arterial oxygen saturation (SpO2), 12-lead electrocardiogram (ECG), body weight, and Eastern Cooperative Oncology Group (ECOG) performance status. Toxicity was evaluated according to the NCI CTCAE criteria version 4.0 14). Blood count and liver and kidney biochemistry examinations were performed just prior to the treatment and 5 days, 2, 4, 6, and 8 weeks after the first administration (Course 1). In addition, the examinations were performed the second, third, fourth administration (Courses 2, 3, 4), and as per routine clinical follow-up thereafter.
Course 2 treatment and subsequent courses were initiated for subjects who completed the dose-limiting toxicity (DLT) observation period (up to Day 56 of Course 1) without experiencing DLT and who met the eligibility criteria. […] The study treatment was considered tolerable when the number of subjects who experienced DLT was zero or one per six subjects. The appropriateness of DLT, as assessed by the investigator or sub-investigator, was confirmed by the clinical trial medical expert. All adverse events and serious adverse events, reported spontaneously or non-spontaneously, were collected during the study.

[1] = TEAE by severity, n = 6, CTCAE v4.0, 4 × 7.4 GBq + amino acid solution + octreotide LAR

C[C@@H](O)[C@H](NC(=O)[C@@H]1CSSC[C@H](NC(=O)[C@@H](Cc2ccccc2)NC(=O)CN2CCN(CC(=O)O)CCN(CC(=O)O)CCN(CC(=O)O)CC2)C(=O)N[C@@H](Cc2ccc(O)cc2)C(=O)N[C@H](Cc2c[nH]c3ccccc23)C(=O)N[C@@H](CCCCN)C(=O)N[C@@H]([C@@H](C)O)C(=O)N1)C(=O)O [177Lu-DOTATATE, ^177Lu-DOTA^0-Tyr^3-octreotate, metal not drawn]
Dose-limiting toxicities (DLT) (DLT observation period up to Day 56 of Course 1, n = 6): no dose-limiting toxicities; also recorded: no DLT
ALT increased, Grade 1 [1]: 1 (16.7) n (%)
ALT increased, Grade 2 [1]: 0 n (%)
ALT increased, Grade 3 [1]: 0 n (%)
ALT increased, Grade 4 [1]: 0 n (%)
AST increased, Grade 1 [1]: 1 (16.7) n (%)
AST increased, Grade 2 [1]: 0 n (%)
AST increased, Grade 3 [1]: 0 n (%)
AST increased, Grade 4 [1]: 0 n (%)
Abdominal distension, Grade 1 [1]: 3 (50.0) n (%)
Abdominal distension, Grade 2 [1]: 0 n (%)
Abdominal distension, Grade 3 [1]: 0 n (%)
Abdominal distension, Grade 4 [1]: 0 n (%)
Abdominal pain, Grade 1 [1]: 1 (16.7) n (%)
Abdominal pain, Grade 2 [1]: 0 n (%)
Abdominal pain, Grade 3 [1]: 0 n (%)
Abdominal pain, Grade 4 [1]: 0 n (%)
All treatment emergent adverse events (TEAEs), Grade 1 [1]: 0 n (%)
All treatment emergent adverse events (TEAEs), Grade 2 [1]: 4 (66.7) n (%)
All treatment emergent adverse events (TEAEs), Grade 3 [1]: 2 (33.3) n (%)
All treatment emergent adverse events (TEAEs), Grade 4 [1]: 0 n (%)
Alopecia, Grade 1 [1]: 3 (50.0) n (%)
Alopecia, Grade 2 [1]: 0 n (%)
Alopecia, Grade 3 [1]: 0 n (%)
Alopecia, Grade 4 [1]: 0 n (%)
Blood and lymphatic system disorders (SOC), Grade 1 [1]: 0 n (%)
Blood and lymphatic system disorders (SOC), Grade 2 [1]: 1 (16.7) n (%)
Blood and lymphatic system disorders (SOC), Grade 3 [1]: 2 (33.3) n (%)
Blood and lymphatic system disorders (SOC), Grade 4 [1]: 0 n (%)
CPK increased, Grade 1 [1]: 0 n (%)
CPK increased, Grade 2 [1]: 1 (16.7) n (%)
CPK increased, Grade 3 [1]: 0 n (%)
CPK increased, Grade 4 [1]: 0 n (%)
Chest discomfort, Grade 1 [1]: 1 (16.7) n (%)
Chest discomfort, Grade 2 [1]: 0 n (%)
Chest discomfort, Grade 3 [1]: 0 n (%)
Chest discomfort, Grade 4 [1]: 0 n (%)
Chest pain, Grade 1 [1]: 1 (16.7) n (%)
Chest pain, Grade 2 [1]: 0 n (%)
Chest pain, Grade 3 [1]: 0 n (%)
Chest pain, Grade 4 [1]: 0 n (%)
Cholesterol increased, Grade 1 [1]: 0 n (%)
Cholesterol increased, Grade 2 [1]: 1 (16.7) n (%)
Cholesterol increased, Grade 3 [1]: 0 n (%)
Cholesterol increased, Grade 4 [1]: 0 n (%)
Constipation, Grade 1 [1]: 2 (33.3) n (%)
Constipation, Grade 2 [1]: 0 n (%)
Constipation, Grade 3 [1]: 0 n (%)
Constipation, Grade 4 [1]: 0 n (%)
Creatinine increased, Grade 1 [1]: 1 (16.7) n (%)
Creatinine increased, Grade 2 [1]: 0 n (%)
Creatinine increased, Grade 3 [1]: 0 n (%)
Creatinine increased, Grade 4 [1]: 0 n (%)
Decreased appetite, Grade 1 [1]: 3 (50.0) n (%)
Decreased appetite, Grade 2 [1]: 1 (16.7) n (%)
Decreased appetite, Grade 3 [1]: 0 n (%)
Decreased appetite, Grade 4 [1]: 0 n (%)
Diarrhea, Grade 1 [1]: 3 (50.0) n (%)
Diarrhea, Grade 2 [1]: 2 (33.3) n (%)
Diarrhea, Grade 3 [1]: 0 n (%)
Diarrhea, Grade 4 [1]: 0 n (%)
Dizziness, Grade 1 [1]: 1 (16.7) n (%)
Dizziness, Grade 2 [1]: 0 n (%)
Dizziness, Grade 3 [1]: 0 n (%)
Dizziness, Grade 4 [1]: 0 n (%)
Dysgeusia, Grade 1 [1]: 0 n (%)
Dysgeusia, Grade 2 [1]: 1 (16.7) n (%)
Dysgeusia, Grade 3 [1]: 0 n (%)
Dysgeusia, Grade 4 [1]: 0 n (%)
Dyshidrotic eczema, Grade 1 [1]: 0 n (%)
Dyshidrotic eczema, Grade 2 [1]: 1 (16.7) n (%)
Dyshidrotic eczema, Grade 3 [1]: 0 n (%)
Dyshidrotic eczema, Grade 4 [1]: 0 n (%)
Gastrointestinal disorders (SOC), Grade 1 [1]: 4 (66.7) n (%)
Gastrointestinal disorders (SOC), Grade 2 [1]: 2 (33.3) n (%)
Gastrointestinal disorders (SOC), Grade 3 [1]: 0 n (%)
Gastrointestinal disorders (SOC), Grade 4 [1]: 0 n (%)
General disorders and administration site conditions (SOC), Grade 1 [1]: 5 (83.3) n (%)
General disorders and administration site conditions (SOC), Grade 2 [1]: 0 n (%)
General disorders and administration site conditions (SOC), Grade 3 [1]: 0 n (%)
General disorders and administration site conditions (SOC), Grade 4 [1]: 0 n (%)
Gingivitis, Grade 1 [1]: 1 (16.7) n (%)
Gingivitis, Grade 2 [1]: 0 n (%)
Gingivitis, Grade 3 [1]: 0 n (%)
Gingivitis, Grade 4 [1]: 0 n (%)
Headache, Grade 1 [1]: 1 (16.7) n (%)
Headache, Grade 2 [1]: 0 n (%)
Headache, Grade 3 [1]: 0 n (%)
Headache, Grade 4 [1]: 0 n (%)
Hyperuricemia, Grade 1 [1]: 1 (16.7) n (%)
Hyperuricemia, Grade 2 [1]: 0 n (%)
Hyperuricemia, Grade 3 [1]: 0 n (%)
Hyperuricemia, Grade 4 [1]: 0 n (%)
Hypocalcemia, Grade 1 [1]: 0 n (%)
Hypocalcemia, Grade 2 [1]: 1 (16.7) n (%)
Hypocalcemia, Grade 3 [1]: 0 n (%)
Hypocalcemia, Grade 4 [1]: 0 n (%)
Immune system disorders (SOC), Grade 1 [1]: 1 (16.7) n (%)
Immune system disorders (SOC), Grade 2 [1]: 0 n (%)
Immune system disorders (SOC), Grade 3 [1]: 0 n (%)
Immune system disorders (SOC), Grade 4 [1]: 0 n (%)
Infections and infestations (SOC), Grade 1 [1]: 2 (33.3) n (%)
Infections and infestations (SOC), Grade 2 [1]: 1 (16.7) n (%)
Infections and infestations (SOC), Grade 3 [1]: 0 n (%)
Infections and infestations (SOC), Grade 4 [1]: 0 n (%)
Investigations (SOC), Grade 1 [1]: 1 (16.7) n (%)
Investigations (SOC), Grade 2 [1]: 4 (66.7) n (%)
Investigations (SOC), Grade 3 [1]: 0 n (%)
Investigations (SOC), Grade 4 [1]: 0 n (%)
Leukopenia, Grade 1 [1]: 0 n (%)
Leukopenia, Grade 2 [1]: 2 (33.3) n (%)
Leukopenia, Grade 3 [1]: 0 n (%)
Leukopenia, Grade 4 [1]: 0 n (%)
Lymphopenia, Grade 1 [1]: 0 n (%)
Lymphopenia, Grade 2 [1]: 1 (16.7) n (%)
Lymphopenia, Grade 3 [1]: 2 (33.3) n (%)
Lymphopenia, Grade 4 [1]: 0 n (%)
Malaise, Grade 1 [1]: 4 (66.7) n (%)
Malaise, Grade 2 [1]: 0 n (%)
Malaise, Grade 3 [1]: 0 n (%)
Malaise, Grade 4 [1]: 0 n (%)
Metabolism and nutrition disorders (SOC), Grade 1 [1]: 3 (50.0) n (%)
Metabolism and nutrition disorders (SOC), Grade 2 [1]: 2 (33.3) n (%)
Metabolism and nutrition disorders (SOC), Grade 3 [1]: 0 n (%)
Metabolism and nutrition disorders (SOC), Grade 4 [1]: 0 n (%)
Musculoskeletal and connective tissue disorders (SOC), Grade 1 [1]: 1 (16.7) n (%)
Musculoskeletal and connective tissue disorders (SOC), Grade 2 [1]: 0 n (%)
Musculoskeletal and connective tissue disorders (SOC), Grade 3 [1]: 0 n (%)
Musculoskeletal and connective tissue disorders (SOC), Grade 4 [1]: 0 n (%)
Musculoskeletal pain, Grade 1 [1]: 1 (16.7) n (%)
Musculoskeletal pain, Grade 2 [1]: 0 n (%)
Musculoskeletal pain, Grade 3 [1]: 0 n (%)
Musculoskeletal pain, Grade 4 [1]: 0 n (%)
Nasopharyngitis, Grade 1 [1]: 2 (33.3) n (%)
Nasopharyngitis, Grade 2 [1]: 0 n (%)
Nasopharyngitis, Grade 3 [1]: 0 n (%)
Nasopharyngitis, Grade 4 [1]: 0 n (%)
Nausea, Grade 1 [1]: 3 (50.0) n (%)
Nausea, Grade 2 [1]: 0 n (%)
Nausea, Grade 3 [1]: 0 n (%)
Nausea, Grade 4 [1]: 0 n (%)
Nervous system disorders (SOC), Grade 1 [1]: 3 (50.0) n (%)
Nervous system disorders (SOC), Grade 2 [1]: 1 (16.7) n (%)
Nervous system disorders (SOC), Grade 3 [1]: 0 n (%)
Nervous system disorders (SOC), Grade 4 [1]: 0 n (%)
Decreased appetite, frequency (all grades) (TEAE, n = 6): 66.7%
Diarrhea, frequency (all grades) (TEAE, n = 6): 83.3%
Leukopenia, frequency (all grades) (TEAE, n = 6): 33.3%
Lymphopenia, frequency (all grades) (TEAE, n = 6): 50%
Malaise, frequency (all grades) (TEAE, n = 6): 66.7%
Nausea, frequency (all grades) (TEAE, n = 6): 50%
Thrombocytopenia, frequency (all grades) (TEAE, n = 6): 33.3%
Lymphocyte, erythrocyte, and leukocyte counts (after each treatment, n = 6): gradually decreased
Abdominal distension, frequency (all grades) (in vivo): 50%
Alopecia, frequency (all grades) (in vivo): 50%
Blood creatinine level increased, frequency (in vivo): 16.7%
Severe infections (in vivo): no severe infections
Severe lymphopenia during the follow-up period, frequency (in vivo): 16.7%
Secondary hematological malignant diseases (n = 6): no secondary hematological malignant diseases
Severe (grade ≥ 3) adverse events associated with non-hematological toxicities (n = 6): no severe (grade ≥ 3) adverse events
